IntAct's records for PubMed 17292836

B1: 26S proteasome non-ATPase regulatory subunit 10 (Mus musculus), Q9Z2X2 (parent)
chain: MEGCVSNIMICNLAYSGKLDELKERILADKSLATRTDQDSRTALHWACSAGHTEIVEFLLQLGVPVNDKDDAGWSPLHIAASAGRDEIVKALLVKGAHVNAVNQNGCTPLHYAASKNRHEIAVMLLEGGANPDAKDHYDATAMHRAAAKGNLKMVHILLFYKASTNIQDTEGNTPLHLACDEERVEEAKFLVTQGASIYIENKEEKTPLQVAKGGLGLILKRLAESEEASM
partner: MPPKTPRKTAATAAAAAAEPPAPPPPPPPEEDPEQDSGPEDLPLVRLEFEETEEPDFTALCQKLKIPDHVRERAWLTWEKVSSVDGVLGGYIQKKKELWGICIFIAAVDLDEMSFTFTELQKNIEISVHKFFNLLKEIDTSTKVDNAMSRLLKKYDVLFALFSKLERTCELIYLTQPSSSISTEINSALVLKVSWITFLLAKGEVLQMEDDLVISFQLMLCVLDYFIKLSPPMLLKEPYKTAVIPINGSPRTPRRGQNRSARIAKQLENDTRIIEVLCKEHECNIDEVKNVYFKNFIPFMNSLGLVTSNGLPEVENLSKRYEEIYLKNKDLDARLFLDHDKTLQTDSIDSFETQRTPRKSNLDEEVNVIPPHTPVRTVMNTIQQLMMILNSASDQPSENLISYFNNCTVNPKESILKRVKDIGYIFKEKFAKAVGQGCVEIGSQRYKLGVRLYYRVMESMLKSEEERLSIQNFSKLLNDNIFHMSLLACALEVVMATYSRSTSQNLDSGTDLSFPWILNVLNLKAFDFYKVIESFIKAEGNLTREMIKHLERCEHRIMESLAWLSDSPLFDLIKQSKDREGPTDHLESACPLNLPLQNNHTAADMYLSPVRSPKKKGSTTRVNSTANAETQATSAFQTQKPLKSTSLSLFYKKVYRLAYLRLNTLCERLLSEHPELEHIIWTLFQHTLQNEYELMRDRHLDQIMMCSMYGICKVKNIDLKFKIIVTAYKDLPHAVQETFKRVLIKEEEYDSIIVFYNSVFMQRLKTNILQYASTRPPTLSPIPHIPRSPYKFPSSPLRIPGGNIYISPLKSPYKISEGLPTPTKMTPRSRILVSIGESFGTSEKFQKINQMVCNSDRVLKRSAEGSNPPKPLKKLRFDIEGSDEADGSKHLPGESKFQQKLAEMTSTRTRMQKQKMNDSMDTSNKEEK

Variants of: B1
Details: with rb_human RB1, P06400

effect of a mutation on the interaction	Variant
disrupting interaction	E182A
